# In the supplement of paper PMC10724198:
# ± gives the standard deviation of the averaged measurements.
# System: Saccharomyces cerevisiae
# Experiment: protein stability index of tFT-peptide fusion (C-terminal peptide) (PSI (0-1 scale)); higher = more stable (slower turnover)
# Conditions: genetic background: wild type; temperature: 30 C
# Protocol: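 Multiplexed protein stability (MPS) profiling in S. cerevisiae. Random 12-aa peptides (tFT-X12 library) are fused to the C-terminus of a sfGFP-mCherry tandem fluorescent timer, after mCherry and a GGGS linker. Cells are FACS-sorted into 8 mCherry/sfGFP bins and deep-sequenced. The protein stability index (PSI) is the read-weighted bin average, scaled from 0 (unstable) to 1 (stable). Only peptides with >10 reads are reported; cells were grown at 30 °C in SC-His with glucose.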
# 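Further: PSI is a weighted mean of sequencing reads over stability bins, variants kept only with over 10 reads, mCherry proximal and sfGFP distal, peptide attached via GGGS linker.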
row,Sequence,protein stability index
1,GGGVRWGVGRGG,0.652 ± 0.025
2,GGGVSCGRWGTG,0.639 ± 0.086
3,GGGVSFWLGGVA,0.633 ± 0.045
4,GGGVVGPGGVLK,0.705 ± 0.11
5,GGGWGAGVRLTW,0.757 ± 0.021
6,GGGWGGGGGVWG,0.686 ± 0.047
7,GGGWRLIVLGWW,0.585 ± 0.087
8,GGHSVRCGGGAL,0.758 ± 0.037
9,GGILNLCVTSLC,0.617 ± 0.022
10,GGKTRGVRMCGG,0.648 ± 0.014
11,GGLGDIHSDDVE,0.681 ± 0.019
12,GGLGGGRRGVGR,0.664 ± 0.012
13,GGLIWRHGGGRG,0.688 ± 0.023
14,GGLLGAGGGCGV,0.681 ± 0.046
15,GGLVGACTRLSG,0.657 ± 0.035
16,GGPGGGRPGPRA,0.6972 ± 0.0026
17,GGPGGGVSGWEG,0.704 ± 0.12
18,GGPVDGSVDRGR,0.627 ± 0.017
19,GGRALVGGRRHG,0.756 ± 0.14
20,GGRAQVGGWWGR,0.774 ± 0.031
21,GGRGAGGGVELR,0.661 ± 0.075
22,GGRGAGRGSVGG,0.679 ± 0.034
23,GGRGRVGEMGGR,0.677 ± 0.015
24,GGRHARRGRRRR,0.75 ± 0.11
25,GGRRVVKSWVLG,0.66 ± 0.014
26,GGSGAGRRGGGR,0.72 ± 0.03

row,Sequence,protein stability index
1,GGSGGRVGVAGG,0.645 ± 0.062
2,GGSRGWGAAAGR,0.766 ± 0.065
3,GGSRPPPFRPPA,0.724 ± 0.014
4,GGSRVSGVVGKG,0.608 ± 0.0076
5,GGSVGSGSRLVV,0.715 ± 0.038
6,GGTGGWVVNRGV,0.706 ± 0.079
7,GGTRSDGYTQSR,0.707 ± 0.017
8,GGTSVLPPAVLF,0.762 ± 0.004
9,GGVCCGGLRGVS,0.7398 ± 0.0039
10,GGVCVGLWGGRG,0.709 ± 0.043
11,GGVDNWKAIRGI,0.737 ± 0.043
12,GGVFCGGGALWA,0.614 ± 0.014
13,GGVFWEEGAAER,0.731 ± 0.023
14,GGVGATSGRLSR,0.712 ± 0.011
15,GGVGGGVRRPGE,0.669 ± 0.034
16,GGVGRGGIRVMG,0.629 ± 0.062
17,GGVGRSWQEVGG,0.72 ± 0.025
18,GGVGVYSVMVGG,0.575 ± 0.015
19,GGVLERARRRGG,0.708 ± 0.2
20,GGVLERSRRRGG,0.741 ± 0.17
21,GGVLSAGSWSGG,0.665 ± 0.019
22,GGVNRPRKSTAT,0.6977 ± 0.0063
23,GGVSRRVNGREA,0.708 ± 0.008
24,GGWGCWQAGGLT,0.7444 ± 0.0016
25,GGWGGGGLGGAF,0.741 ± 0.037
26,GGWPREVVGRGG,0.671 ± 0.09

row,Sequence,protein stability index
1,GGWSGRFVTVGR,0.713 ± 0.066
2,GGWWGRAGENTR,0.729 ± 0.075
3,GGWWGWAGENTR,0.7 ± 0.048
4,GGYATYWVGVRL,0.697 ± 0.036
5,GHGGSKIYCLVD,0.637 ± 0.062
6,GHLRPFPPPLLP,0.748 ± 0.089
7,GIFRTRGFPPVG,0.694 ± 0.088
8,GIGLSVGDVLGC,0.73 ± 0.037
9,GIIDGGTISRNK,0.692 ± 0.013
10,GIISLTPRGCTR,0.92 ± 0.11
11,GINEGRAISDDW,0.725 ± 0.021
12,GIPEFGYLYLVT,0.613 ± 0.017
13,GIPYGWLLCFPR,0.813 ± 0.021
14,GIRAEPSGGQAE,0.692 ± 0.057
15,GISASYTASSSG,0.642 ± 0.067
16,GISPFYTALSGF,0.754 ± 0.03
17,GIVFRGVVTWLL,0.6 ± 0.0085
18,GIVRGFGGGGEE,0.662 ± 0.026
19,GKAGGNREGTGT,0.689 ± 0.048
20,GKCTGSAEMRPQ,0.627 ± 0.079
21,GKGEERGVATRT,0.657 ± 0.0076
22,GKIEVNTRIPGG,0.646 ± 0.078
23,GKNKKSKTLIKQ,0.669 ± 0.029
24,GKRAKKKNTKRY,0.662 ± 0.14
25,GKRHICFNHSGE,0.6966 ± 0.0045
26,GKRKKERGGGER,0.711 ± 0.093

row,Sequence,protein stability index
1,GKRRCRREVERK,0.695 ± 0.018
2,GKRTGRKKRRKR,0.638 ± 0.095
3,GKRWPSINKGPV,0.6851 ± 0.0051
4,GKVGGQGGKGVV,0.765 ± 0.13
5,GLACWALLTCNR,0.726 ± 0.015
6,GLCPALQFPLHE,0.68 ± 0.024
7,GLCRRLDRQLAN,0.6787 ± 0.0026
8,GLFAPVGLGFGL,0.724 ± 0.012
9,GLGACMVNELLG,0.648 ± 0.018
10,GLGGGVGGWLVV,0.705 ± 0.041
11,GLGGRFSWVDGV,0.756 ± 0.012
12,GLGGRVWSDMGG,0.745 ± 0.11
13,GLGTIYGGEWWW,0.759 ± 0.085
14,GLGWGGVGVAGV,0.705 ± 0.076
15,GLKVVENWIECA,0.555 ± 0.044
16,GLNPPDPYPVSF,0.754 ± 0.11
17,GLPLPPPHPFSL,0.7793 ± 0.0021
18,GLPPPAPRRPDL,0.664 ± 0.0077
19,GLPSSYLSALFR,0.708 ± 0.029
20,GLQFRPFCVLEL,0.634 ± 0.013
21,GLSPPLCSTPSR,0.736 ± 0.0092
22,GLSWTVDDGHGG,0.683 ± 0.039
23,GLVGGLCIGRLV,0.672 ± 0.024
24,GLVVCDGGGVGC,0.684 ± 0.14
25,GLWIRAEISLVS,0.575 ± 0.016
26,GLYCDDSYPRPH,0.666 ± 0.1

row,Sequence,protein stability index
1,GMCWTEGNTAVL,0.697 ± 0.06
2,GMDGRGGGGSVV,0.723 ± 0.039
3,GMLSIHWNIGGT,0.725 ± 0.014
4,GMRGGGGWCRGW,0.671 ± 0.043
5,GMRILRLIHVIP,0.571 ± 0.031
6,GMSRLFTYRAAS,0.72 ± 0.0091
7,GMTYWFCSFPFF,0.686 ± 0.04
8,GMVTCTSPRCHK,0.694 ± 0.016
9,GNFDRVSMTKFR,0.73 ± 0.035
10,GNSGAFTPSTQW,0.687 ± 0.055
11,GPAPAPPALSSC,0.745 ± 0.0089
12,GPCFPRRSAPSD,0.67 ± 0.046
13,GPCSSMFGLRYT,0.672 ± 0.033
14,GPDSSYLITPRR,0.755 ± 0.065
15,GPEAVARIFDDE,0.708 ± 0.0095
16,GPFHILSSATRP,0.705 ± 0.054
17,GPGGVGVTSGGK,0.679 ± 0.062
18,GPGSCPVRLCGF,0.661 ± 0.0074
19,GPGVFGGFRTEK,0.648 ± 0.056
20,GPLVGGDGRWVG,0.706 ± 0.011
21,GPPPAWALCYPL,0.601 ± 0.023
22,GPPPLRLWPLPV,0.618 ± 0.079
23,GPPPPLFAPWPF,0.656 ± 0.027
24,GPPRDLARKAGL,0.708 ± 0.065
25,GPRGGRLSWAPG,0.62172 ± 0.00044
26,GPRVLCNCHLRD,0.688 ± 0.0083

row,Sequence,protein stability index
1,GPSATPPGPGLR,0.792 ± 0.052
2,GPSVWRPSESLV,0.748 ± 0.03
3,GPTPPRSPPAVS,0.646 ± 0.055
4,GPTPSVKGDRDT,0.632 ± 0.044
5,GPVAYSMDILVE,0.66 ± 0.058
6,GPVHVRGVGFGF,0.73 ± 0.02
7,GPVRIDSPFKSA,0.733 ± 0.017
8,GPVVAGRLWLWV,0.641 ± 0.046
9,GQCHYSSFPVRQ,0.732 ± 0.011
10,GQCRTELVGLWE,0.664 ± 0.13
11,GQEGQIPPGNVH,0.709 ± 0.011
12,GQIVFDNSGSRW,0.6955 ± 0.0028
13,GQKKARGRGGGM,0.737 ± 0.0077
14,GQRKQKIKKKRK,0.647 ± 0.16
15,GQRTKSHSRGGP,0.648 ± 0.025
16,GQVACLVSREYT,0.69 ± 0.018
17,GQVCSWRCVCYL,0.6741 ± 0.0065
18,GRAVPKTHPGNL,0.7686 ± 0.0037
19,GRCIQHPYKVNI,0.679 ± 0.017
20,GRDFASNFRQLG,0.718 ± 0.026
21,GRDKLNEDRDKV,0.647 ± 0.0095
22,GRDPARPRPLAP,0.677 ± 0.046
23,GREEKQGAENRT,0.65 ± 0.018
24,GRFVTRAWARSW,0.639 ± 0.018
25,GRGEIQDRRCRG,0.668 ± 0.049
